Data published in publication PMC4405695, “The Rab6-regulated KIF1C kinesin motor domain contributes to Golgi organization” (eLife, 2015).
Each block holds one binder with its values, some of them ahead of it.

Assays:
[1] = target: T1, Paclitaxel stabilized pre-polymerized microtubules (UniProt Q71U36 1-451; P07437 1-444, Paclitaxel-stabilized polymer, polymerized with GTP. One alpha/beta heterodimer represents the repeating unit. Source and isotypes are not given; mammalian (likely porcine) brain tubulin, a natural); test: co-sedimentation; KIF1C-355-His (160 nM) with His-Rab6A Q72L, His-Rab33 or BSA (3.42 µM), then increasing microtubules, 2.6 mM ADP, 0.35 mM GTPγS; BRB80; settings: both partners purified
[2] = target: T1, Paclitaxel stabilized pre-polymerized …; test: co-sedimentation; KIF1C-355-His (80 nM) with His-Rab6A Q72L (4.86 µM) or BSA (7.6 µM), then increasing microtubules, 2.6 mM AMP-PNP, 0.35 mM GTPγS; BRB80; settings: both partners purified
myc-KIF1C-350 = target: T2, myc-KIF1C-350 (human, UniProt O43896 1-350); test: pull-down; concentration dependence: in vitro translated myc-KIF1C-350 with GTPγS-loaded GST-Rab6A Q72L; apparent KD; fit with KaleidaGraph; settings: one partner purified
T2 construct: KIF1C, human, N-terminal motor domain, residues 1-350; also called myc-KIF1C motor domain; in vitro translated KIF1C motor domain; source: in vitro translated
T2 sequence (looked up): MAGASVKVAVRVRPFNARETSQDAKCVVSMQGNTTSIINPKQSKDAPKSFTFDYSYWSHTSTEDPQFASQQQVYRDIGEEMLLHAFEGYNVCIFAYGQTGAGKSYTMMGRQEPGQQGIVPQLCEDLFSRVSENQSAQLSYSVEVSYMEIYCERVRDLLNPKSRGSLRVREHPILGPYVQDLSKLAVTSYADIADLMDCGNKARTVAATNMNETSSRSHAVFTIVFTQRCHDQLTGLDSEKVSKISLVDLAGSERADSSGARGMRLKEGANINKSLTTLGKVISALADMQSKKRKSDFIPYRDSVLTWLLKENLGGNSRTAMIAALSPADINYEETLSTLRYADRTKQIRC

His-Rab6A Q72L = target: T3, His-Rab6A Q72L (UniProt P20340 1-208, Q72L); test: pull-down; concentration dependence: GTPγS-loaded His-Rab6A Q72L (0.58 μM) with GST-KIF1C CBD immobilized on glutathione Sepharose; quantitative fluorescent antibody immunoblot; fit with GraphPad Prism; settings: both partners purified
T3 construct: Rab6A GTPase, GTP-hydrolysis deficient mutant; also called active His-Rab6A; source: purified as described (Aivazian et al., 2006)

Kd [1]: 2100 nM
fold increase of KD with His-Rab6A (ADP state) [1]: > 10 fold
Kd [2]: 460 nM
fold increase of KD with His-Rab6A (AMP-PNP state) [2]: > 10 fold
B1: KIF1C-355-His (domain or fragment)
chain: MAGASVKVAVRVRPFNARETSQDAKCVVSMQGNTTSIINPKQSKDAPKSFTFDYSYWSHTSTEDPQFASQQQVYRDIGEEMLLHAFEGYNVCIFAYGQTGAGKSYTMMGRQEPGQQGIVPQLCEDLFSRVSENQSAQLSYSVEVSYMEIYCERVRDLLNPKSRGSLRVREHPILGPYVQDLSKLAVTSYADIADLMDCGNKARTVAATNMNETSSRSHAVFTIVFTQRCHDQLTGLDSEKVSKISLVDLAGSERADSSGARGMRLKEGANINKSLTTLGKVISALADMQSKKRKSDFIPYRDSVLTWLLKENLGGNSRTAMIAALSPADINYEETLSTLRYADRTKQIRNTVSVN
notes: KIF1C, human, motor domain residues 1-349; KIF5C heavy chain, murine, residues 329-334; Design follows Nitta et al., 2004 for KIF1A; also called recombinant KIF1C motor domain; purified KIF1C motor domain; source: E. coli Rosetta 2, purified (Ni-NTA, HiTrap Q FF); not shown: His6, C-terminal, kept

Kd (myc-KIF1C-350): 230 nM
B2: GST-Rab6A Q72L (natural protein, UniProt P20340 1-208, looked up)
chain: MSTGGDFGNPLRKFKLVFLGEQSVGKTSLITRFMYDSFDNTYQATIGIDFLSKTMYLEDRTVRLQLWDTAGLERFRSLIPSYIRDSTVAVVVYDITNVNSFQQTTKWIDDVRTERGSDVIIMLVGNKTDLADKRQVSIEEGERKAKELNVMFIETSAKAGYNVKQLFRRVAAALPGMESTQDRSREDMIDIKLEKPQEQPVSEGGCSC
notes: Rab6A GTPase, GTP-hydrolysis deficient mutant; GTPγS-loaded; also called active Rab6A hydrolysis-deficient mutant; source: purified as described (Aivazian et al., 2006)

Kd (His-Rab6A Q72L): 900 nM
B3: GST-KIF1C CBD (domain or fragment, human, UniProt O43896 1060-1103, looked up)
chain: SYPQPPQPYPAQRPPGPRYPPYTTPPRMRRQRSAPDLKESGAAV
notes: the text calls it the C-terminal 40 amino acids; Text says 40 C-terminal residues, the legend AA 1060-1103 (44 residues); source: bacteria, purified (glutathione-Sepharose)
